The values below come from article PMC8044456, “Tandem UGT71B5s Catalyze Lignan Glycosylation in Isatis indigotica With Substrates Promiscuity” (Frontiers in Plant Science, 2021).

What all share (assay): LC/MS glucosylation assay, Lineweaver-Burk
Common to all, as to assay type: biochemical, Isatis tinctoria
What all share (conditions): 2 mM UDP-glucose, 20–200 μM acceptor, 100 mM phosphate pH 8.0, 30°C

Substrate in series [1]: Oc1cc2c(cc1[C@H]1OC[C@H]3[C@@H]1CO[C@@H]3c1ccc3c(c1)OCO3)OCO2
From the text:
(§1) LC/MS glucosylation assay, Lineweaver-Burk on IiUGT71B5a

Substrate in series [2]: COc1cc(C[C@@H](CO)[C@H](CO)Cc2ccc(O)c(OC)c2)ccc1O
Excerpt: as §1

Substrate in series [3]: COc1cc(C[C@H]2COC(=O)[C@@H]2Cc2ccc(O)c(OC)c2)ccc1O
Excerpt: as §1

Substrate in series [4]: COc1cc([C@@H]2OC[C@@H]3[C@H]2CO[C@H]3c2ccc(O)c(OC)c2)ccc1O
Excerpt: as §1

Substrate in series [5]: [H][C@@]1(Oc2ccc([C@H]3OC[C@]4([H])[C@@H](c5ccc(O)c(OC)c5)OC[C@]34[H])cc2OC)O[C@H](CO)[C@@H](O)[C@H](O)[C@H]1O
Excerpt: as §1

Substrate in series [6]: COc1cc(C[C@H]2CO[C@H](c3ccc(O)c(OC)c3)[C@H]2CO)ccc1O
Excerpt: as §1

Substrate in series [7]: Oc1cc2c(cc1[C@H]1OC[C@H]3[C@@H]1CO[C@@H]3c1ccc3c(c1)OCO3)OCO2
From the text:
(§2) LC/MS glucosylation assay, Lineweaver-Burk on IiUGT71B5b
The source holds these as a separate data set.

Substrate in series [8]: COc1cc(C[C@H]2COC(=O)[C@@H]2Cc2ccc(O)c(OC)c2)ccc1O
Excerpt: as §2
The source holds these as a separate data set.

B1: IiUGT71B5a (Isatis tinctoria) (protein)
chain: MKIELVFIPSPGIGHLRSTVELAKQLVNGDDRLSITVIIIPRSSGGDATDSAQISSLFAASQDRLRYETISVADEPTADRLPTQLYIKNQKPQVRDAVAKILDPARVDSPPRLAGFVVDMFCTSMIDLADEFGVPTYMVYTSNATFLGITLHLQLMLDEKKYDTSELDESVNELEFPCLTRPYPVECLPYLFISKEWLPFFMDQARSFRKMKGILVNTVAELEPHALELFSGDDDLPRAYPVGPVLHLESGSDNSNDDGKQSEILRWLDDQPAKSVVFLCFGSMGGFNEEQTREIAVALDRSGHRFLWSLRRASPDILKQGPGDYTDLDEVLPEGFLDRTLERGKIIGWAPQAAVLAKPAIGGFVTHCGWNSMLESLWFGVPMVTWPLYAEQKVNAFVMVEELGLAVEIRRSLKGDLMAGGMETVAAEDIERAIRRVMEQDSDVRNRVKEMAEKCHVALTDGGSSQVALRKFIQDVIENVVV
notes: full-length ORF 1,449 bp, 482 aa; pET-32a+ tagged recombinant, E. coli BL21(DE3), Ni-NTA; tag removal not mentioned; gene in tandem cluster Ii4G26670/Ii4G26680/Ii4G26690 (Ii4G26690 = IiUGT71B5c); genome VHIU00000000
For the protein B1, the Km in series [1] was 48.00 ± 0.79 µM; in series [2], 168.48 ± 9.18 µM; in series [3], 62.35 ± 1.53 µM; in series [4] it was 67.16 ± 2.00 µM; in series [5], 136.06 ± 6.56 µM; in series [6], 568.29 ± 16.08 µM. The Vmax in series [1] turned out to be 0.00049 µmol/min; in series [2], 8.34e-05 µmol/min; in series [3] it was 3.5e-05 µmol/min; in series [4], 6.12e-05 µmol/min; in series [5], 0.000111 µmol/min; in series [6], 0.000141 µmol/min. Besides, the kcat in series [1] was 0.563 s⁻¹; in series [2], 0.0961 s⁻¹; in series [3], 0.0403 s⁻¹; in series [4] it was 0.07 s⁻¹; in series [5] it was 0.128 s⁻¹; in series [6], 0.162 s⁻¹. The specificity constant (kcat/Km) in series [1] amounted to 11700 M⁻¹ s⁻¹; in series [2], 571 M⁻¹ s⁻¹; in series [3], 646 M⁻¹ s⁻¹; in series [4] it was 1040 M⁻¹ s⁻¹; in series [5], 939 M⁻¹ s⁻¹; in series [6], 285 M⁻¹ s⁻¹.

B2: IiUGT71B5b (Isatis tinctoria) (protein)
chain: MKIELVFMPSPGIGHLRSTVQLAKQLVNGDDRLSITVIIIPRSSGGDATDSAQISSLFTASQDRLRYESISVADEPTTNRLPTQHYIASQKPQVRDAVAKLIDPTRVDSPPRLAGFVVDMFCISMIDLADEFGVPTYMVYTSNARFLGITLHLQLMIDEKKYDATELDESVNELEFPCLTRPYPVDCLPHILISKDYLFMDQARSYRKMKGILVNTVAELEPHALELFSGDGDLPRAYPVGPVLHLESRSDHSNDDGKQSEILRWLDEQPAKSVVFLCFGSMGGFNEEQAREIAVALDRSGHRFLWSLRRASPDIMKEGPRDYTNLDEVLPEGFLDRTSERGKIIGWAPQAAVLAKPAIGGFVTHCGWNSMLESLWFGVPTVTWPLYAEQKVNAFEMVEELGLAVEIRRSLKGDLMFGGMETVTAEDIERAIRRVMEQGSDVRNRVKEMAEKCHVALTDGGSSKAALRKFIEDVVENVAA
notes: full-length ORF 1,443 bp, 480 aa; pET-32a+ tagged recombinant, E. coli BL21(DE3), Ni-NTA; tag removal not mentioned; gene in tandem cluster Ii4G26670/Ii4G26680/Ii4G26690 (Ii4G26690 = IiUGT71B5c); genome VHIU00000000
In the case of B2, in series [7], the Km was 135.48 ± 10.90 µM, the Vmax was 0.000125 µmol/min, the kcat is 0.143 s⁻¹ and the catalytic efficiency (kcat/Km) is 1060 M⁻¹ s⁻¹. In series [8], the Km is 61.34 ± 1.48 µM, the Vmax was 2.41e-05 µmol/min, the kcat came out at 0.0277 s⁻¹ and the catalytic efficiency (kcat/Km) is 451 M⁻¹ s⁻¹.

The term Km denotes the concentration of substrate that gives half-maximal velocity. The term Vmax denotes the rate approached at saturating substrate. What is called kcat is the maximal rate divided by the concentration of active sites. By kcat/Km is commonly meant the turnover number divided by the Michaelis constant.
